This passage reports other: Log2 (fold change) of total spectral counts, loss of p300 recruitment against the wt FOXO1 and reduction of p300 recruitment against the FOXO1 part of P3F results from article PMC10724205.

One experiment deals with CLP1. Nature of the experiment: BioID (proximity biotinylation, streptavidin isolation, mass spectrometry). The conditions noted are these: HEK293T cells, transient transfection, biotin, 24 h; n = 3; read off a plot.
For another experiment, the target named is DNTTIP2. The experiment is described as above. As to conditions: HEK293T cells, transient transfection, biotin, 24 h; n = 3; read off a plot.
In another experiment the target is MED6 (UniProt O75586). The experiment is described as above. The conditions noted are these: HEK293T cells, transient transfection, biotin, 24 h; n = 3; read off a plot.
Another experiment concerns the target TAF9 (UniProt Q16594). Described as above. As to conditions: HEK293T cells, transient transfection, biotin, 24 h; n = 3; read off a plot.
The next experiment concerns the target TCF4. Described as above. As to conditions: HEK293T cells, transient transfection, biotin, 24 h; n = 3; read off a plot.
For another experiment, the target named is YY1. The description is as above. The conditions noted are these: HEK293T cells, transient transfection, biotin, 24 h; n = 3; read off a plot.
A further experiment has as its target p300 (UniProt Q09472). The description is as above. As to conditions: HEK293T cells, transient transfection, biotin, 24 h; n = 3; read off a plot.
The target of experiment [1] is LacI-CFP-FOXO1 fusion protein with the C793S mutant FOXO1 domain. Put plainly: LacO array recruitment assay; U2OS cells with 50,000 Lac operon repeats on chromosome 1, transfected with CFP-LacI-FOXO1 fusion baits; endogenous p300 detected at the CFP dot by immunofluorescence after 48 h; dots counted for presence or absence of p300.
For experiment [2], the target named is LacI-CFP-FOXO1 fusion protein with the small C-terminal AD deleted. Described as above.

UniProt Q16594, sequence (Q16594 whole entry): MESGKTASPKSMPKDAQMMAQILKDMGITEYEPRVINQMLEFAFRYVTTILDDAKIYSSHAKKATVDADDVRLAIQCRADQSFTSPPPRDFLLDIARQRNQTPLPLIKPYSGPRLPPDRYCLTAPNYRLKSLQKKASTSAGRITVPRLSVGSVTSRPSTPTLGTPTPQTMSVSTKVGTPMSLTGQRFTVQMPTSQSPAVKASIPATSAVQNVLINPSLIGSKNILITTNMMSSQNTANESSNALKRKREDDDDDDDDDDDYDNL
UniProt Q09472, sequence (Q09472 whole entry, the tested form may be a part): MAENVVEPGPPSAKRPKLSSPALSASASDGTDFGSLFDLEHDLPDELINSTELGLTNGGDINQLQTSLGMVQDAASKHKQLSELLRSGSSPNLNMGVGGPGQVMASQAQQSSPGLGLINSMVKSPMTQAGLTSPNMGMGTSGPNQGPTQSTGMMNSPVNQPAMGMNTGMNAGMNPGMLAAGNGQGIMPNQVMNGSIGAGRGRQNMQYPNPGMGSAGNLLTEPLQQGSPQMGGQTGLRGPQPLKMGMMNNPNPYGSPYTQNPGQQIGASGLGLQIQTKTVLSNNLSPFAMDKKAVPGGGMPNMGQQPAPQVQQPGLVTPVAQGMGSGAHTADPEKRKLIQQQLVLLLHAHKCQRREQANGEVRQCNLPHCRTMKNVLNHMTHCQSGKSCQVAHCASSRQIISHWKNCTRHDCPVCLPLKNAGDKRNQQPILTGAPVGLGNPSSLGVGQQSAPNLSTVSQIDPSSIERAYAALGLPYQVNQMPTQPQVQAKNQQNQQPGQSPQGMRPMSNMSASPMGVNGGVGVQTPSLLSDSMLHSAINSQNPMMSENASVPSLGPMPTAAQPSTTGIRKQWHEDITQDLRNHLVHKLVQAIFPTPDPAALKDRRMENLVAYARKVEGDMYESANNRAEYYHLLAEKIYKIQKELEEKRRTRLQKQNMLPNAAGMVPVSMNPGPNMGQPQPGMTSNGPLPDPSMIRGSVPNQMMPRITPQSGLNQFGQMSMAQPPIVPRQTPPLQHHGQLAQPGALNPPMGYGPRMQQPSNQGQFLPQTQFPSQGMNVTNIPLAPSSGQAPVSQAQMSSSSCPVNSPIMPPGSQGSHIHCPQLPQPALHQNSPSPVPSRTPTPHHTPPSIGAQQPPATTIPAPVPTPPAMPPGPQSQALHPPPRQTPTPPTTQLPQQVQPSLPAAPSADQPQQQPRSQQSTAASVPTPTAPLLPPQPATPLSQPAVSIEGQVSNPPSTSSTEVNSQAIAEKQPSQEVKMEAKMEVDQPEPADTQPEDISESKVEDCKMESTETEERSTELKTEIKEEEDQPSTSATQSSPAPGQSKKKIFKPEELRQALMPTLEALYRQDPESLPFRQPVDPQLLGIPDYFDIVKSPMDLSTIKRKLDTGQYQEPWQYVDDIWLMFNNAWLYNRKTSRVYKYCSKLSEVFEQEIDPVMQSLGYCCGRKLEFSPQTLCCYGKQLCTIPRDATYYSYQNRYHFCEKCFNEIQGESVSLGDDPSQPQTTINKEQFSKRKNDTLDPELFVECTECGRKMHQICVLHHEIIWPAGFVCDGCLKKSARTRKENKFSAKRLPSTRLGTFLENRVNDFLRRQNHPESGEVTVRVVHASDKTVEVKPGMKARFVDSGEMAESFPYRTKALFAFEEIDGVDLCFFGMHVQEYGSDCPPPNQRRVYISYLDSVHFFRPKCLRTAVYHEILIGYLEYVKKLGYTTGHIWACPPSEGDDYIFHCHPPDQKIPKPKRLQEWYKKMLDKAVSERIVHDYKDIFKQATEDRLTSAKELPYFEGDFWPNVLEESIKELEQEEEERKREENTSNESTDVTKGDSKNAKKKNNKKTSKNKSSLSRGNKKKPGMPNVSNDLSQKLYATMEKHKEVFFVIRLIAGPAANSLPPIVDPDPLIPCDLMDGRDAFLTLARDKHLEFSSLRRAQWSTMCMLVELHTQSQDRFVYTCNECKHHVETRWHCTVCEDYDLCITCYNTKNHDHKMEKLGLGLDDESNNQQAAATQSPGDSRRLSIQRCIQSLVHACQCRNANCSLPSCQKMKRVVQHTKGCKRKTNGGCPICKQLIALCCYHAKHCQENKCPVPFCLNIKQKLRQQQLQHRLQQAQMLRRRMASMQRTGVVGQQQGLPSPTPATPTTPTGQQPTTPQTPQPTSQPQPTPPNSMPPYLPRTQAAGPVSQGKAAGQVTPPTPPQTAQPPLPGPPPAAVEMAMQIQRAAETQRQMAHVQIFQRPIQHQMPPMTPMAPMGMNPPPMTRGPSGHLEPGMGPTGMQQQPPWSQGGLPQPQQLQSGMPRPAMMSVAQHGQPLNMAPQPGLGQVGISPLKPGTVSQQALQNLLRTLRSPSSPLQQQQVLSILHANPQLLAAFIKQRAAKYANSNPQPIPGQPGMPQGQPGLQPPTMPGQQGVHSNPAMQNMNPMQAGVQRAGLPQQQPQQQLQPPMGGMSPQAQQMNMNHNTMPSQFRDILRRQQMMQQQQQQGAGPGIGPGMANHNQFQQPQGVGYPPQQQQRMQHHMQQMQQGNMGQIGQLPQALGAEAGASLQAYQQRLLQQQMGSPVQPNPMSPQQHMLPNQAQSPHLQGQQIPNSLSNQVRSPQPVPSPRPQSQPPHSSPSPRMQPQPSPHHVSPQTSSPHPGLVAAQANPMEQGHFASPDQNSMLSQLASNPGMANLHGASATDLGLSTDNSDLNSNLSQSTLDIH
UniProt O75586, sequence (O75586 whole entry): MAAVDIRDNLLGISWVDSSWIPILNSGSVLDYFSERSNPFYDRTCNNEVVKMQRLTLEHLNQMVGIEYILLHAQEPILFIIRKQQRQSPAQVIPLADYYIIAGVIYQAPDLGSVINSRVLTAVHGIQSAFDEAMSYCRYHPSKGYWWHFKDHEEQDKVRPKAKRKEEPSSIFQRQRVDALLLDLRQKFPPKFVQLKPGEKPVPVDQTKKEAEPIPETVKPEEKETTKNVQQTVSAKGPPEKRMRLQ

With “BirA-Flag/PAX3-FOXO1 fusion construct (wildtype P3F) C793S”, the other: Log2 (fold change) of total spectral counts amounted to 2.2 in the experiment with CLP1; 2.5 with DNTTIP2; 1.2 with MED6; 3.8 with TAF9; 1.4 with TCF4; 2.4 with YY1. The other: Log2 (fold change) of total spectral counts with p300 turned out to be 0.7.

The substance “p300 (endogenous in U2OS cells) (from UniProt Q09472 1-2414) (natural protein)” yielded a loss of p300 recruitment against the wt FOXO1 in [1] of 30 percent. This substance also had a reduction of p300 recruitment against the FOXO1 part of P3F in [2] of 90 percent.
